Test [1] has as its target T1, purified soluble recombinant human TβRII (extracellular domain of human TGF-β type II receptor, prepared in … (human, UniProt P37173 23-159)).
T1 construct: The range 1-159 is as printed; also called purified human soluble TβRII; purified soluble human TβRII
As to the kind of experiment: SPR (Biacore X), soluble TβRII immobilised on the chip, antibody injected. On the procedure: HBS buffer (containing 0.01 M HEPES, 0.15 M NaCl, 3 mM EDTA, and 0-0.005% Detergent P20, pH 7.0) was injected through a flow cell-1 attached to the kit at a flow rate of 5 μl/min. Then, 35 μl of a solution consisting of 0.005 M NHS (N-hydroxysuccinimide) and 0.2 M EDC (N-ethyl-N'-(dimethylaminopropyl)carbodiimide) was injected to activate the carboxyl groups of the CM coated on the sensor chip.
Then, 70 μl of purified soluble human TβRII (30 μg/ml; dissolved in 10 mM sodium acetate buffer (pH 5.0)) prepared in Example 2 was injected over the chip to be immobilized on the sensor chip.
Phosphate buffer was injected to the flow cell (sensor chip) at a flow rate of 20 μl/minute, and each of the purified human anti-human TGF-β type II receptor monoclonal antibody prepared in the above Example (40 to 100 μg/ml, 60 μl) was added thereto.
In general terms: Surface plasmon resonance follows binding to a sensor surface in real time, without labels.

Test [2] addresses T2, rat TβRII expressed on the cell surface of rat kidney-derived fibroblast cell line NRK-49F (rat, UniProt P38438 24-567).
T2 construct: whole, on cells
T2 sequence (looked up): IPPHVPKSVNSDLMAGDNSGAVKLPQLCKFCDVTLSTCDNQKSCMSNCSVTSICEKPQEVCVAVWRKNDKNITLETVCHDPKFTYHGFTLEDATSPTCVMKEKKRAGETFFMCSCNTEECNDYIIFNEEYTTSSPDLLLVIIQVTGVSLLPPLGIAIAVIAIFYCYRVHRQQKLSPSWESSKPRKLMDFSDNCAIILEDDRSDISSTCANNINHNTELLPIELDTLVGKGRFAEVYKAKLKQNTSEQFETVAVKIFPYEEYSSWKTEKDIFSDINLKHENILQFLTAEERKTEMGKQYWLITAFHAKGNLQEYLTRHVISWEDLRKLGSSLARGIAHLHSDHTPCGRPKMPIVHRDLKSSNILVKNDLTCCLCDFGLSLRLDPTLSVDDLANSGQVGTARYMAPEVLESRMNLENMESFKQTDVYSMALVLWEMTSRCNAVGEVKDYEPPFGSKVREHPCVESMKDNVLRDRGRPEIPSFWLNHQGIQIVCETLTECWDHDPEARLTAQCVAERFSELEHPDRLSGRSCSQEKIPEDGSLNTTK
As to the kind of experiment: flow cytometry on rat kidney-derived fibroblast cell line NRK-49F, antibody at 5 µg/ml, biotin-labeled anti-human immunoglobulin (Fc) antibody and streptavidin-PE [d]. On the procedure:
(§1) Further, similarly, the reactivity against rat TβRII of each of the various human anti-human TβRII monoclonal antibodies was analyzed by cell staining (by flow cytometry) using rat kidney-derived fibroblast cell line NRK-49F (ATCC CRL-1570) expressing rat TβRII on cell surface.
(§2) Each of the human anti-human TβRII monoclonal antibodies of the present invention or commercially available goat anti-human TβRII polyclonal antibody (R&D) (300 μl, 5 μg/ml) (diluted with phosphate buffer containing 0.1% BSA) was added to the respective cells (1 to 2 ×10^4 cells). The mixtures were incubated at 4° C. for one hour, and then centrifuged (at 1,500 rpm for three minutes). The supernatants were discarded, and the cells were washed twice with phosphate buffer. The biotin-labeled anti-human immunoglobulin (Fc) antibody (200 μl; American Qualex International Inc.) was added to the samples containing the human antibodies. The biotin-labeled anti-goat immunoglobulin antibody (200 μl; Amersham Pharmacia) was added to the samples containing the goat antibody. The samples were incubated at 4° C. for one hour.
(§3) Then, each sample was centrifuged (at 1,500 rpm for three minutes), and the supernatant was discarded. […] The samples were fluorescently analyzed with FACStar fluorescence-activated cell sorter (Becton Dickinson) (fluorescence wavelength: a DF585/42 filter, excitation wavelength: 488 nm).
On the technique in general: Flow cytometry measures light scatter and fluorescence of single cells or particles in a stream.

The target in test [3] is T3, goat anti-human TβRII polyclonal antibody (R&D).
T3 construct: Polyclonal reagent; also called anti-human soluble TβRII polyclonal antibody (R&D); commercially available anti-human TβRII polyclonal antibody
Put plainly: sandwich ELISA: goat anti-human TβRII polyclonal antibody coated, soluble TβRII titrated, detection with the biotin-labeled goat anti-human TβRII polyclonal antibody and streptavidin-β-galactosidase (fluorescence). Here is the method:
Establishment of a Quantitative Method with Sandwich ELISA for Human Soluble TβRII <1-1> Establishment of a Sandwich ELISA System to Quantify Soluble Recombinant Human TβRII Goat anti-human TβRII polyclonal antibody (R&D) was diluted with phosphate buffer, and added to each well of a 96-well ELISA microplate (Corning) at a concentration of 0.1 μg/50 μl/well. The plate was incubated at room temperature for one hour to allow adsorption of the polyclonal antibody.
The assay sample was added to each well of the antibody-immobilized microplate (50 μl/well), and the plate was incubated at room temperature for one hour. Then, the microplate was washed three times with phosphate buffer containing 0.1% Tween20. Biotin-labeled goat anti-human TβRII polyclonal antibody (R&D) (diluted with phosphate buffer containing 1% BSA and 0.1% Tween20) was then added to each well at a concentration of 0.025 μg/50 μl/well. The plate was incubated at room temperature for one hour.
A calibration curve was prepared with the sandwich ELISA established in Example <1-1> using commercially available soluble recombinant human TβRII (R&D) as a standard.
In general terms: An ELISA detects its analyte on a solid surface through an enzyme-linked reagent.

Test [4] deals with T2, rat TβRII expressed on the cell surface …. Put plainly: flow cytometry on rat kidney-derived fibroblast cell line NRK-49F, antibody at 5 µg/ml, biotin-labeled anti-human immunoglobulin (Fc) antibody and streptavidin-PE [f]. Here is the method: as §1, §2, §3

In general, Kd refers to the constant that tells how readily two partners part at equilibrium. The term koff denotes the rate constant with which the complex falls apart. As a reminder, the EC50 (read off the curve) is the concentration at which the effect is half-maximal. A higher EC50 (read off the curve) goes with lower potency in that assay.

B1: human anti-human TβRII monoclonal antibody TR4C175 (antibody, V domains shown)
VH: EVQLVESGGGLVKPGGSLRLSCAASGFTFSSFSMNWVRQAPGKGLEWVSSISSSSSYIYYTDSVKGRFTISRDNAKNSLYLQMNSLRAEDTAVYYCARGYWGFDYWGQGTLVTVSS
VL: DIQMTQSPSSLSASVGDRVTITCRASQGIRNDLGWYQQKPGKAPKRLIYAASSLQSGVPSRFSGSASGTEFTLTISSLQPEDFATYYCLQHNSNPLTFGGGTKVEIKR
notes: Human IgG4/kappa purified from hybridoma supernatant (transgenic mouse); VH gene 3-21 (DP-77), VL gene A30; The stated signal residues must be removed from the entries; also called Clone TR4C175; TRC175
Take B1: in test [1], the Kd was found to be 51 nM and the koff came to 0.014 s⁻¹. Also, the binding result in test [2] is “binds”.

B2: commercially available soluble recombinant human TβRII (R&D) (receptor, UniProt P37173 23-159, looked up)
chain: TIPPHVQKSVNNDMIVTDNNGAVKFPQLCKFCDVRFSTCDNQKSCMSNCSITSICEKPQEVCVAVWRKNDENITLETVCHDPKLPYHDFILEDAASPKCIMKEKKKPGETFFMCSCSSDECNDNIIFSEEYNTSNPD
notes: Bought product; also called standard substance
Consider B2, for which the “EC50 (read off the curve)” value in test [3] is approximately 2 ng/mL.

B3: human anti-human TβRII monoclonal antibody TR4D455 (antibody, human IgG4, V domains shown)
VH: EVQLVQSGAEVKKPGESLKISCKGSGYSFTSYWIGWVRQMPGKGLEWMGIIYPGDSDTRYSPSFQGQVTISADKSISTAYLQWSSLKASDTAMYYCARVGGCSGGSCYLWGQGNLVTVSS
VL: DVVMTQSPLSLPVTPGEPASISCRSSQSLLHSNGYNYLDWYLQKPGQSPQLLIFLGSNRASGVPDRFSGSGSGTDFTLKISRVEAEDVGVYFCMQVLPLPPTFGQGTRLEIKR
notes: Human IgG4/kappa purified from hybridoma supernatant; VH gene 5-51 (DP-73), VL gene A19 (DPK-15); The stated signal residues must be removed from the entries; also called Clone TR4D455
In the case of B3, in test [1], the Kd was determined as 3.4 nM and the koff is 0.00012 s⁻¹. For the same molecule, the binding result in test [4] is reported as “binds”.

Source of the values: patent US7579186 (Amgen, dated 2009).
